This note sets out measurements from article PMC4498383.

This assay concerns the target apolipoprotein E on the surface of very low-density lipoproteins (human) (UniProt P02649). The assay can be described thus: AFM-based force spectroscopy; DENV C covalently attached to the AFM tip; VLDL adsorbed on freshly cleaved mica; TEE-KCl buffer pH 7.4 (20 mM Tris-HCl, 100 mM KCl, 1 mM EDTA, 1 mM EGTA); loading rate 4 nN/s; with or without rabbit anti-human APOE antibody (1 or 100 ug/L) or an isotype-matched control antibody.
Chain of UniProt P02649 (P02649 19-317): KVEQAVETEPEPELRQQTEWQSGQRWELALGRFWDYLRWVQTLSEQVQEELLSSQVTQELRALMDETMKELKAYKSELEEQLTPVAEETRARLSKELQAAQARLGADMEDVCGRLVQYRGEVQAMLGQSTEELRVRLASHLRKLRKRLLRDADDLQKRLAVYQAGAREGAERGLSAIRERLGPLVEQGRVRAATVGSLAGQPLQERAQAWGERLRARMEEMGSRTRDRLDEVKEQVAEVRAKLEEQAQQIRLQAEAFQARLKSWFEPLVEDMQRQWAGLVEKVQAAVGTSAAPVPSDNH

The substance “Dengue virus capsid (C) protein (natural protein)” gave a rupture force, 1st Gaussian peak (DENV C-VLDL, no antibody) of 29.7 pN and a rupture force, 2nd Gaussian peak (DENV C-VLDL, no antibody) of 52.1 pN.
